Substitutions are numbered along the chain they refer to. Names may count otherwise.
B1: IL6R-2B253/IL6R-L (antibody, human IgG1, kappa)
heavy: QVQLQESGPGLVKPSETLSLTCAVSGHSISHDHAWSWVRQPPGEGLEWIGFISYSGITNYNPSLQGRVTISRDNSKNTLYLQMNSLRAEDTAVYYCARSLARTTAMDYWGEGTLVTVSSASTKGPSVFPLAPSSKSTSGGTAALGCLVKDYFPEPVTVSWNSGALTSGVHTFPAVLQSSGLYSLSSVVTVPSSSLGTQTYICNVNHKPSNTKVDKKVEPKSCDKTHTCPPCPAPDLLGGDSVFLFPPKPKDTLMISRTPEVTCVVVDVSHEDPEVKFNWYVDGVEVHNAKTKPREEQYNSTYRVVSVLTVLHQDWLNGKEYKCKMSNKALPAPIEKTISKAKGQPREPQVYTLPPSRDELTKNQVSLTCLVKGFYPSDIAVEWESNGQPENNYKTTPPVLDSDGSFFLYSKLTVDKSRWQQGNVFSCSVMHEALHNHYTQESLSLSP
light: not shown
B2: IL6R-BP206/IL6R-L (antibody, human IgG1, kappa)
heavy: B1 heavy with P273G, M325V, A332R
light: not shown
B3: IL6R-BP199/IL6R-L (antibody, human IgG1, kappa)
heavy: B1 heavy with M325V, K328D, A332R
light: not shown
B4: IL6R-BP207/IL6R-L (antibody, human IgG1, kappa)
heavy: B1 heavy with M325V, A332R
light: not shown
B5: IL6R-BP211/IL6R-L (antibody, human IgG1, kappa)
heavy: B1 heavy with H270D, P273G, M325V, K328A, A332R
light: not shown
B6: IL6R-BP209/IL6R-L (antibody, human IgG1, kappa)
heavy: B1 heavy with D235E, G239D, H270D, P273G, M325V, K328A, A332R
light: not shown
B7: IL6R-BP203/IL6R-L (antibody, human IgG1, kappa)
heavy: B1 heavy with D235E, G239D, P273G, M325V, A332R
light: not shown
B8: IL6R-BP213/IL6R-L (antibody, human IgG1, kappa)
heavy: B1 heavy with H270D, P273G, M325V, A332R
light: not shown
B9: GpH7-G1d/GpL16-k0 (antibody, human IgG1, kappa)
heavy: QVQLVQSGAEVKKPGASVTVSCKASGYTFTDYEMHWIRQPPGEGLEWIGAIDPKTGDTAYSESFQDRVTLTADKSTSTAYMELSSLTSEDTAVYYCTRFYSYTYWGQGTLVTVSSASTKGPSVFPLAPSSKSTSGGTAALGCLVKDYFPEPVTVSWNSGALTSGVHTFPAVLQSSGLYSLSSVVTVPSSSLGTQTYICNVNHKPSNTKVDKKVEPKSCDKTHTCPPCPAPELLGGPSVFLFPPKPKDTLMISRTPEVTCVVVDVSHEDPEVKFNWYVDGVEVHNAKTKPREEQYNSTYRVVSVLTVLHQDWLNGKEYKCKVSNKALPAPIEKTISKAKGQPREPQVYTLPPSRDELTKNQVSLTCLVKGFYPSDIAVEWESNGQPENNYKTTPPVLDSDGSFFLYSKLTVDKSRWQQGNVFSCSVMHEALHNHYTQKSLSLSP
light: DIVMTQSPLSLPVTPGEPASISCQASESLVHSNRNTYLHWYLQKPGQSPQLLIYKVSNRFSGVPDRFSGSGSGTDFTLKISRVEAEDVGVYYCSQNTHVPPTFGQGTKVEIERTVAAPSVFIFPPSDEQLKSGTASVVCLLNNFYPREAKVQWKVDNALQSGNSQESVTEQDSKDSTYSLSSTLTLSKADYEKHKVYACEVTHQGLSSPVTKSFNRGEC
notes: Anti-glypican 3 IgG1 without C-terminal Gly and Lys
B10: GpH7-AP001/GpH7-BF648/GpL16-k0 (antibody, human IgG1, kappa, name in EU numbering)
heavy 1: QVQLVQSGAEVKKPGASVTVSCKASGYTFTDYEMHWIRQPPGEGLEWIGAIDPKTGDTAYSESFQDRVTLTADKSTSTAYMELSSLTSEDTAVYYCTRFYSYTYWGQGTLVTVSSASTKGPSVFPLAPSSKSTSGGTAALGCLVKDYFPEPVTVSWNSGALTSGVHTFPAVLQSSGLYSLSSVVTVPSSSLGTQTYICNVNHKPSNTKVDKKVEPKSCDKTHTCPPCPAPELLGGDSVFLFPPKPKDTLMISRTPEVTCVVVDVSHEDPEVKFNWYVDGVEVHNAKTKPREEQYNSTYRVVSVLTVLHQDWLNGKEYKCKVSNKALPAPIEKTISKAKGQPREPQVYTLPPSRKELTKNQVSLTCLVKGFYPSDIAVEWESNGQPENNYKTTPPVLDSDGSFFLYSKLTVDKSRWQQGNVFSCSVMHEALHNRYTQKSLSLSP
heavy 2: not shown
light: B9 light
notes: Heterodimerized anti-glypican 3 IgG1; P238D in both chains
B11: GpH7-AP001/GpH7-BP032/GpL16-k0 (antibody, human IgG1, kappa)
heavy 1: B10 heavy 1
heavy 2: not shown
light: B9 light
notes: Heterodimerized anti-glypican 3 IgG1; copies: 1 + 1 + 2
B12: GpH7-AP001/GpH7-BP061/GpL16-k0 (antibody, human IgG1, kappa, name in EU numbering)
heavy 1: B10 heavy 1
heavy 2: not shown
light: B9 light
notes: Heterodimerized anti-glypican 3 IgG1
B13: GpH7-AP001/GpH7-BP063/GpL16-k0 (antibody, human IgG1, kappa, name in EU numbering)
heavy 1: B10 heavy 1
heavy 2: not shown
light: B9 light
notes: as for B12
B14: GpH7-AP001/GpH7-BP044/GpL16-k0 (antibody, human IgG1, kappa)
heavy 1: B10 heavy 1
heavy 2: not shown
light: B9 light
notes: as for B11
B15: GpH7-AP001/GpH7-BP069/GpL16-k0 (antibody, human IgG1, kappa, name in EU numbering)
heavy 1: B10 heavy 1
heavy 2: not shown
light: B9 light
notes: as for B12
B16: GpH7-AP001/GpH7-BP057/GpL16-k0 (antibody, human IgG1, kappa)
heavy 1: B10 heavy 1
heavy 2: not shown
light: B9 light
notes: as for B11
B17: GpH7-A5/GpH7-B3/GpL16-k0 (antibody, human IgG1, kappa)
heavy 1: not shown
heavy 2: not shown
light: B9 light
notes: Heterodimerized anti-glypican 3 IgG1 (A5: D356K/H435R; B3: K439E); also called A5/B3
B18: GpH7-A5/GpH7-BF648/GpL16-k0 (antibody, human IgG1, kappa)
heavy 1: not shown
heavy 2: not shown
light: B9 light
notes: Heterodimerized anti-glypican 3 IgG1; P238D in the GpH7-B3 chain only

Columns and labels:
[1] = target: T1, FcγRIa extracellular domain with C-terminal His tag (human, UniProt P12314 16-292); experiment: SPR, captured antibody, FcgR analyte
T1 construct: also called FcgRIa
Protocol: (§1) Relative binding activities were calculated for the results of analyzing interactions with the respective FcγRs according to the following method.

[2] = target: T2, FcγRIIb extracellular domain with C-terminal His tag (human, UniProt P31994 43-217); experiment: SPR, captured antibody, FcgR analyte
T2 construct: extracellular domain; also called FcgRIIb
T2 sequence (looked up): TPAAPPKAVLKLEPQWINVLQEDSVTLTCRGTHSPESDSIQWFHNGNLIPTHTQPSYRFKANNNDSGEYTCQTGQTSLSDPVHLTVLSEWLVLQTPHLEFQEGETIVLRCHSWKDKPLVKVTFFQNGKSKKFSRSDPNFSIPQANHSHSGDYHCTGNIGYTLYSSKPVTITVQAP
Protocol: as §1

[3] = target: T3, FcγRIIIa type V extracellular domain with C-terminal His tag (human, UniProt P08637 17-208); experiment: SPR, captured antibody, FcgR analyte
T3 construct: extracellular domain; also called FcgRIIIaV; FcγRIIIaV
Protocol: as §1

[4] = target: T4, FcγRIIa type H extracellular domain with C-terminal His tag (human, UniProt P12318 34-217); experiment: SPR, captured antibody, FcgR analyte
T4 construct: extracellular domain; also called FcgRIIaH; FcγRIIa H
T4 sequence (looked up): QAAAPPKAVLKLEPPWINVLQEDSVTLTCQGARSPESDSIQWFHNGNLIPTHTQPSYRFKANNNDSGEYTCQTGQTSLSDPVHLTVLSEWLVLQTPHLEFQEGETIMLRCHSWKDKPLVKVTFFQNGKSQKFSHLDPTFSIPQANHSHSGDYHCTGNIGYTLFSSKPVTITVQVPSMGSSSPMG
Protocol: as §1

[5] = target: T5, FcγRIIb extracellular domain with C-terminal His tag (human, UniProt P31994 43-217); experiment: SPR binding amounts, FcgRIIb divided by FcgRIIaR
T5 construct: extracellular domain; For crystallography it was expressed with kifunensine and trimmed with Endo F1; also called FcgRIIb; FcγRIIb extracellular region; not shown: His tag attached to the C terminus
T5 sequence (looked up): T2 sequence (looked up)

[6] = target: T5, FcγRIIb extracellular domain with …; experiment: SPR binding amount, relative to GpH7-AP001/GpH7-BF648/GpL16-k0
[7] = target: T6, FcγRIIa type R extracellular domain with C-terminal His tag (human, UniProt P12318 34-217); experiment: as above
T6 chain: T4 sequence (looked up) with H134R

T3 sequence (P08637 17-208 F176V): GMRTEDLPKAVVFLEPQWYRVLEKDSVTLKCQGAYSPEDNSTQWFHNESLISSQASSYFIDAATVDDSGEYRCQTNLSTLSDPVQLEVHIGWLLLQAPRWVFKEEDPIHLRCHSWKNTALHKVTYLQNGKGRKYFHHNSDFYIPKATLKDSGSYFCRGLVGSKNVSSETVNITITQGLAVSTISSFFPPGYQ
T1 sequence (P12314 16-292): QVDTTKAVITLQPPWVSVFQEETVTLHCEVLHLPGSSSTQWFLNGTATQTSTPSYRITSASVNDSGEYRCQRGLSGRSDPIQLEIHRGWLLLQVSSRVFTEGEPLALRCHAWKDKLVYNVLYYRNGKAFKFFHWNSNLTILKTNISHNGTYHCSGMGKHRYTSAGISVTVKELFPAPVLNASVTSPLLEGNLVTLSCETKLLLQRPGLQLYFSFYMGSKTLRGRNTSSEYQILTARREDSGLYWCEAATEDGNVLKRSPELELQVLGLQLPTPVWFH

Row | Binder | relative binding activity [1] | relative binding activity [2] | relative binding activity [3] | relative binding activity [4] | amount binding to FcgRIIb/amount binding to FcgRIIaR [5] | binding amount to FcgRIIb when that of GpH7-AP001/GpH7-BF648 is defined as 100 [6] | binding amount to FcgRIIaR when that of GpH7-AP001/GpH7-BF648 is defined as 100 [7]
1 | B1 | 155 relative (IL6R-BF648/IL6R-L = 100) | 156 relative (IL6R-BF648/IL6R-L = 100) | 126 relative (IL6R-BF648/IL6R-L = 100) | 207 relative (IL6R-BF648/IL6R-L = 100) | – | – | –
2 | B2 | 101 relative (IL6R-BF648/IL6R-L = 100) | 168 relative (IL6R-BF648/IL6R-L = 100) | 92 relative (IL6R-BF648/IL6R-L = 100) | – | – | – | –
3 | B3 | 112 relative (IL6R-BF648/IL6R-L = 100) | 144 relative (IL6R-BF648/IL6R-L = 100) | 103 relative (IL6R-BF648/IL6R-L = 100) | – | – | – | –
4 | B4 | 74 relative (IL6R-BF648/IL6R-L = 100) | 124 relative (IL6R-BF648/IL6R-L = 100) | 97 relative (IL6R-BF648/IL6R-L = 100) | – | – | – | –
5 | B5 | 128 relative (IL6R-BF648/IL6R-L = 100) | 165 relative (IL6R-BF648/IL6R-L = 100) | 87 relative (IL6R-BF648/IL6R-L = 100) | – | – | – | –
6 | B6 | 68 relative (IL6R-BF648/IL6R-L = 100) | 186 relative (IL6R-BF648/IL6R-L = 100) | 153 relative (IL6R-BF648/IL6R-L = 100) | 267 relative (IL6R-BF648/IL6R-L = 100) | – | – | –
7 | B7 | 35 relative (IL6R-BF648/IL6R-L = 100) | 185 relative (IL6R-BF648/IL6R-L = 100) | 88 relative (IL6R-BF648/IL6R-L = 100) | 255 relative (IL6R-BF648/IL6R-L = 100) | – | – | –
8 | B8 | 118 relative (IL6R-BF648/IL6R-L = 100) | 169 relative (IL6R-BF648/IL6R-L = 100) | 100 relative (IL6R-BF648/IL6R-L = 100) | 123 relative (IL6R-BF648/IL6R-L = 100) | – | – | –
9 | B9 | – | – | – | – | 0.5 | 65 | 515
10 | B10 | – | – | – | – | 4 | 100 | 100
11 | B11 | – | – | – | – | 1 | 129 | 538
12 | B12 | – | – | – | – | 2.9 | 80 | –
13 | B13 | – | – | – | – | 1.7 | 69 | 161
14 | B14 | – | – | – | – | 0.8 | 127 | 609
15 | B15 | – | – | – | – | 2.2 | 72 | 131
16 | B16 | – | – | – | – | 0.9 | 121 | 561
17 | B17 | – | – | – | – | 0.5 | 77 | 570
18 | B18 | – | – | – | – | 0.8 | 131 | 677

Reference: patent US20210261648A1 (published 2021)
